Assay results published in paper PMC5432305, “Fungal lectin MpL enables entry of protein drugs into cancer cells and their subcellular targeting” (Oncotarget, 2017).

T1: Papain (UniProt P00784 134-345)
T1 chain: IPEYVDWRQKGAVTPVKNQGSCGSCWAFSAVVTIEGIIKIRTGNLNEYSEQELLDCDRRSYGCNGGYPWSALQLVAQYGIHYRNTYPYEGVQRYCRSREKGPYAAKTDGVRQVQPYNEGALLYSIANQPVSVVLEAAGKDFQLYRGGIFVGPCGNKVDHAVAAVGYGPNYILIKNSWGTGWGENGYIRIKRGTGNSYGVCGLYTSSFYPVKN

T2: Papain (UniProt P00784 134-345)
T2 construct: also called cysteine peptidase papain; cysteine protease papain; source: bought: Sigma
T2 sequence (looked up): T1 chain

B1: Recombinant clitocypin (Clt) (natural protein, UniProt Q3Y9I6 1-152, looked up)
chain: MASLEDGTYRLRAVTTSNPDPGVGGEYATVEGARQPVKAEPSTPPFFERQIWQVTRNSDGQSTIKYQGLNAPFEYGFSYDQLEQNAPVIAGDPKEYILQLVPSTTDVYIIRAPIQRVGVDVEVGVQGNNLVYKFFPVDGSGGDRPAWRFTRE
notes: also called rClt; unlinked Clt; source: E. coli, purified as described [19]
B2: CysC-MpL fusion protein (cystatin C, (GGGGS)3 linker, MpL) (other)
chain: SSPGKPPRLVGGPMDASVEEEGVRRALDFAVGEYNKASNDMYHSRALQVVRARKQIVAGVNYFLDVELGRTTCTKTQPNLDNCPFHDQPHLKRKAFCSFQIYAVPWQGTMTLSKSTCQDAGGGGSGGGGSGGGGSMSTQVSSGQTYKITNVKAGTVIDLSGEDNKSIIGYPYHSGKNQQWTFNWTGKAWTLRSASSGSYLGIEGTPADGTRLVAVNDPFEWHIWRDEANENAFRIFVPFTNYNLDLSGYGDTTPGTPVQLWWTWEGLHQTWTIDRP
modifications: Cystatin C without its 26-residue signal peptide (stated for unlinked CysC, assumed for the fusion). (GGGGS)3 linker kept because it joins the two domains. Vector start Met not added; MpL Met1 may be absent in the fusion. Dimeric forms were observed; copies given per chain.
B3: Recombinant cystatin C (CysC) (natural protein, human, UniProt P01034 27-146, looked up)
chain: SSPGKPPRLVGGPMDASVEEEGVRRALDFAVGEYNKASNDMYHSRALQVVRARKQIVAGVNYFLDVELGRTTCTKTQPNLDNCPFHDQPHLKRKAFCSFQIYAVPWQGTMTLSKSTCQDA
notes: Human cystatin C without its signal peptide of 26 amino acids; It was cloned through NdeI and BamHI into pET11a, so an initiator methionine is likely; also called unlinked CysC
B4: Clt-MpL fusion protein (clitocypin, (GGGGS)3 linker, MpL) (other)
chain: MASLEDGTYRLRAVTTSNPDPGVGGEYATVEGARQPVKAEPSTPPFFERQIWQVTRNSDGQSTIKYQGLNAPFEYGFSYDQLEQNAPVIAGDPKEYILQLVPSTTDVYIIRAPIQRVGVDVEVGVQGNNLVYKFFPVDGSGGDRPAWRFTREGGGGSGGGGSGGGGSMSTQVSSGQTYKITNVKAGTVIDLSGEDNKSIIGYPYHSGKNQQWTFNWTGKAWTLRSASSGSYLGIEGTPADGTRLVAVNDPFEWHIWRDEANENAFRIFVPFTNYNLDLSGYGDTTPGTPVQLWWTWEGLHQTWTIDRP
modifications: Clitocypin species taken from the candidate for the printed accession Q3Y9I6; MpL species is printed. (GGGGS)3 linker kept because it joins the two domains. MpL Met1 may be absent in the fusion. Dimeric forms were observed; copies given per chain.

Assays:
Papain [1] = target: T1, Papain
Papain [2] = target: T2, Papain; assay: enzyme inhibition kinetics (Ki, Henderson equation for tight binding competitive inhibitors); papain 2.6 nM, different concentrations of inhibitor proteins, 0.1 M MES, 5 mM DTT, 0.1 mM Z-Phe-Arg-AMC, pH 6.5, 25°C, fluorescence 370/460 nm; conditions: both partners purified

Binder	Ki (Papain [1])	binding result (Papain [2])
B1	60.8 nM	binds
B2	41 nM	–
B3	85.5 nM	binds
B4	161 nM	–
